According to patent US20200223885A1:

Target: IgG1 (manufactured by Sigma-Aldrich)
Test: SPR (Biacore T100), Fc-binding protein amine-coupled to CM5, IgG1 as analyte

- Kd: 3.28 µM
- koff: 0.301 s⁻¹
- kon: 90200 M⁻¹ s⁻¹
B1: Fc-binding protein FcR9_F (FcR9 with Val192Phe) (receptor)
chain: KIEEAMGMRTEDLPKAEVILEPQWNRVLEKDSVTLKCRGAYSPEDNSTQWFHNESLISSQASSYLIDAATVDDSGEYRCQTSLSTLSDPVQLEVHIGWLLLQAPRWEFKEGDPIHLRCHSWKNTALHKVTYLQNGKGRKYFHHNSDFYIPKATLKDSGSYSCRGLFGSKNVSSETVNITITQGGHHHHHH
